T1: mouse FcγRIII (mouse, UniProt P08508 31-215)
T1 construct: also called mFcγRIII; mouse FcγR3
T1 chain: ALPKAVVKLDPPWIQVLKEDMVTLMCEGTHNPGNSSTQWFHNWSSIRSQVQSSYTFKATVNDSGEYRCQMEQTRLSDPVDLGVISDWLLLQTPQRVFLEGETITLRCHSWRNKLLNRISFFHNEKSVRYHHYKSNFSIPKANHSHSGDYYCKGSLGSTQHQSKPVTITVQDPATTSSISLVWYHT

T2: human FcγRIIIb (NA2) (human, UniProt O75015 17-200)
T2 construct: also called human FcγR3b allelic variant NA2
T2 chain: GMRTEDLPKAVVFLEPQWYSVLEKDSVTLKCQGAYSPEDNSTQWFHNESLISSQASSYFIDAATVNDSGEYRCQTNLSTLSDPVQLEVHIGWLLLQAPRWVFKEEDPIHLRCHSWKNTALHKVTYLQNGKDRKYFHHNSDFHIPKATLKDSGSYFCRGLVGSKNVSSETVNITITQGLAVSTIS

T3: human FcγRIIb (human, UniProt P31994 43-217)
T3 construct: also called human FcγR2b
T3 sequence: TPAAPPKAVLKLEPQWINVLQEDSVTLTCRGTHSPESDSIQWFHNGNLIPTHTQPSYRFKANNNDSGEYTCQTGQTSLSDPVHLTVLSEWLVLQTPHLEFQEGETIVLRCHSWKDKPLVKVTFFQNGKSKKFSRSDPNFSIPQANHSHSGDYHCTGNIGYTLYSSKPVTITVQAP

T4: mouse FcγRI (mouse, UniProt P26151 25-297)
T4 construct: also called mFcγRI; mouse FcγR1
T4 sequence: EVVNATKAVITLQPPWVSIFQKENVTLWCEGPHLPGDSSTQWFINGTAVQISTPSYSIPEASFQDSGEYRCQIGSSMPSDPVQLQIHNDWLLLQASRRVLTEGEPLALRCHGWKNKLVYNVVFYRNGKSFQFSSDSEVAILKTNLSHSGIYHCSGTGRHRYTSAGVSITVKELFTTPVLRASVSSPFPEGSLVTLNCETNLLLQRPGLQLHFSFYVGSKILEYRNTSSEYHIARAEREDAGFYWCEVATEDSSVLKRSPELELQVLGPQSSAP

T5: human FcγRIIIb (NA1) (human, UniProt O75015 17-200)
T5 construct: also called human FcγR3b allelic variant NA1
T5 chain: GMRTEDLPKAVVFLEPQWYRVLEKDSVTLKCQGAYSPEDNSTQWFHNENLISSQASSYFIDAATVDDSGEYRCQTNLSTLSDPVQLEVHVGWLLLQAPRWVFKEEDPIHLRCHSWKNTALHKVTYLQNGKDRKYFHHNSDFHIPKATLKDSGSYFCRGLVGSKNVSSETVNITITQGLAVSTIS

T6: mouse FcγRIV (mouse, UniProt A0A0B4J1G0 21-203)
T6 construct: also called mFcγRIV; mouse FcγR4
T6 sequence: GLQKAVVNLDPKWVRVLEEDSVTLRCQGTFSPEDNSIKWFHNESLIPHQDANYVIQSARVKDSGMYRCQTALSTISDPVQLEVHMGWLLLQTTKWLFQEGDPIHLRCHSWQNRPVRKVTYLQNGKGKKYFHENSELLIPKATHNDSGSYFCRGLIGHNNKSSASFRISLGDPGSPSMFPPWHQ

T7: human FcγRIIa (167R) (human, UniProt P12318 36-217)
T7 construct: also called human FcγR2a allelic variant 167R
T7 chain: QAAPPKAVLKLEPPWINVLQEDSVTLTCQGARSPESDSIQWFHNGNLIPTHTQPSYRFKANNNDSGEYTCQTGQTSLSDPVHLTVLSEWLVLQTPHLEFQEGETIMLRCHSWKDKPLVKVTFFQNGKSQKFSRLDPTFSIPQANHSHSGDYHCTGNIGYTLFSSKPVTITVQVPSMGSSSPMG


Columns and labels:
[1] = target: Zika virus (Asian strain, accession number KF993678) (Zika virus); assay: cell-based or functional assay
mouse FcγRIII = target: T1, mouse FcγRIII; assay: SPR (Biacore T200, pH 7.4): His-tagged FcγR captured, antibody alone or 1:1 immune complex with trimeric CD154 injected at 100 nM; response divided by capture level [c]
human FcγRIIIb (NA2) = target: T2, human FcγRIIIb (NA2); assay: SPR (Biacore T200, pH 7.4): His-tagged FcγR captured, antibody alone or 1:1 immune complex with trimeric CD154 injected at 100 nM; response divided by capture level [h]
human FcγRIIb = target: T3, human FcγRIIb; assay: SPR (Biacore T200, pH 7.4): His-tagged FcγR captured, antibody alone or 1:1 immune complex with trimeric CD154 injected at 100 nM; response divided by capture level [d]
mouse FcγRI = target: T4, mouse FcγRI; assay: SPR (Biacore T200, pH 7.4): His-tagged FcγR captured, antibody alone or 1:1 immune complex with trimeric CD154 injected at 100 nM; response divided by capture level [a]
human FcγRIIIb (NA1) = target: T5, human FcγRIIIb (NA1); assay: SPR (Biacore T200, pH 7.4): His-tagged FcγR captured, antibody alone or 1:1 immune complex with trimeric CD154 injected at 100 nM; response divided by capture level [g]
mouse FcγRIV = target: T6, mouse FcγRIV; assay: SPR (Biacore T200, pH 7.4): His-tagged FcγR captured, antibody alone or 1:1 immune complex with trimeric CD154 injected at 100 nM; response divided by capture level [d]
human FcγRIIa (167R) = target: T7, human FcγRIIa (167R); assay: SPR (Biacore T200, pH 7.4): His-tagged FcγR captured, antibody alone or 1:1 immune complex with trimeric CD154 injected at 100 nM; response divided by capture level [c]
[2] = target: T8, Recombinant soluble E protein (0.8E-His) from DENV-3 (DENV-3, UniProt P27915 281-673)
[3] = target: T8, Recombinant soluble E protein …; assay: SPR Biacore T200

| Binder | binding result (human FcγRIIIb (NA2)) | binding result (human FcγRIIb) | binding result (human FcγRIIIb (NA1)) | binding result (mouse FcγRIV) | Kd [2] [nM] | other results |
| --- | --- | --- | --- | --- | --- | --- |
| DG_3CH1047-SG1106/3CL-SK1 (antibody) heavy: QVQLVQSGPDVEKPGASVKVSCKASGYTFTSYYMHWVRQAPGQGLEWMGVINPRGGSRRSAQKFQGRITMTRDTSTSTVYMELSSLRSEDTAVYYCARGGEALFYDSYTTPFDGGSWWFDPWGQGSLVTVSSASTKGPSVFPLAPSSKSTSGGTAALGCLVKDYFPEPVTVSWNSGALTSGVHTFPAVLQSSGLYSLSSVVTVPSSSLGTQTYICNVNHKPSNTKVDKRVEPKSCDKTHTCPPCPAPEAAGGPSVFLFPPKPKDTLMISRTPEVTCVVVDVSHEDPEVKFNWYVDGVEVHNAKTKPREEQYNSTYRVVSVLTVLHQDWLNGKEYKCKVSNAALPAPISKTISKAKGQPREPQVYTLPPSREEMTKNQVSLTCLVKGFYPSDIAVEWESNGQPENNYKTTPPVLDSDGSFFLYSKLTVDKSRWQQGNVFSCSVLHEALHAHYTRKELSLSP light: not shown | – | – | – | – | – | EC50 (µg/mL), FRNT neutralization, Average [1]: 0.63 µg/mL; EC50 (µg/mL), FRNT neutralization, Expt 1 [1]: 0.33 µg/mL; EC50 (µg/mL), FRNT neutralization, Expt 2 [1]: 0.93 µg/mL |
| Anti-CD154 antibody with Fc variant LALA + KAES (SG1095) (antibody, human IgG1, kappa, L234A L235A) heavy: EVQLVESGGGSVKPGGSLKLSCAASGFTFSDHYMYWVRQTPEKRLEWVAIISGGGSYTSYPDSMKGRFTISRDNAKNILHLQMSSLKSEDTAMYYCTRESNGKPGFAYWGQGTLVTVSAASTKGPSVFPLAPSSKSTSGGTAALGCLVKDYFPEPVTVSWNSGALTSGVHTFPAVLQSSGLYSLSSVVTVPSSSLGTQTYICNVNHKPSNTKVDKRVEPKSCDKTHTCPPCPAPEAAGGPSVFLFPPKPKDTLMISRTPEVTCVVVDVSHEDPEVKFNWYVDGVEVHNAKTKPREEQYNSTYRVVSVLTVLHQDWLNGKEYKCKVSNAALPAPISKTISKAKGQPREPQVYTLPPSREEMTKNQVSLTCLVKGFYPSDIAVEWESNGQPENNYKTTPPVLDSDGSFFLYSKLTVDKSRWQQGNVFSCSVMHEALHNHYTQKSLSLSP light: not shown | no binding (tested: 100 nM) | no binding (tested: 100 nM) | no binding (tested: 100 nM) | no binding (tested: 100 nM) | – | binding result (mouse FcγRIII): no binding (tested: 100 nM); binding result (mouse FcγRI): no binding (tested: 100 nM); binding result (human FcγRIIa (167R)): no binding (tested: 100 nM) |
| Anti-CD154 antibody with Fc variant LALA + KWES (SG1088) (antibody, human IgG1, kappa, L234A L235A) heavy: EVQLVESGGGSVKPGGSLKLSCAASGFTFSDHYMYWVRQTPEKRLEWVAIISGGGSYTSYPDSMKGRFTISRDNAKNILHLQMSSLKSEDTAMYYCTRESNGKPGFAYWGQGTLVTVSAASTKGPSVFPLAPSSKSTSGGTAALGCLVKDYFPEPVTVSWNSGALTSGVHTFPAVLQSSGLYSLSSVVTVPSSSLGTQTYICNVNHKPSNTKVDKRVEPKSCDKTHTCPPCPAPEAAGGPSVFLFPPKPKDTLMISRTPEVTCVVVDVSHEDPEVKFNWYVDGVEVHNAKTKPREEQYNSTYRVVSVLTVLHQDWLNGKEYKCKVSNWALPAPISKTISKAKGQPREPQVYTLPPSREEMTKNQVSLTCLVKGFYPSDIAVEWESNGQPENNYKTTPPVLDSDGSFFLYSKLTVDKSRWQQGNVFSCSVMHEALHNHYTQKSLSLSP light: not shown | no binding (tested: 100 nM) | no binding (tested: 100 nM) | no binding (tested: 100 nM) | no binding (tested: 100 nM) | – | – |
| DG_3CH-SG182/3CL-SK1 (antibody, V domains shown) VH: QVQLVQSGPDVEKPGASVKVSCKASGYTFTSNYIHWVRQAPGQGLEWMGVINPRGGSTASAQKFQGRITMTRDTSTSTVYMELSSLRSDDTAVYYCARGGRALFYDSYTTPRDGGSWWFDPWGQGSLVTVSS VL: DIQLTQSPSSLSASVGDRVTFTCQASQDIRKYLNWYQQKPGKAPKLLIYDASNLKTGVPSRFSGSGSGTDFTFTISSLQPEDVATYYCQQFDDLPITFGQGTRLQIKR | – | – | – | – | 6.35 | – |
| DG_3CH953-SG182/3CL499-SK1 (antibody, human IgG1, kappa, V domains shown) VH: QVQLVQSGPDVEKPGASVKVSCKASGYTFTSNYIHWVRQAPGQGLEWMGVINPRGGSRRSAQKFQGRITMTRDTSTSTVYMELSSLRSEDTAVYYCARGGRALFYDSYTTPFDGGSWWFDPWGQGSLVTVSS VL: DIQLTQSPSSLSASVGDRVTFTCQASQDIRKYLNWYQQKPGKAPKLLIYDASNLKFGVPSRFSGSGSGTDFTFTISSLQPEDVATYYCQQFDALPITFGQGTRLQIKR | – | – | – | – | – | binding result [3]: binds |
| DG_3CH987-SG182/3CL-SK1 (antibody, V domains shown) VH: QVQLVQSGPDVEKPGASVKVSCKASGYTFTSYYIHWVRQAPGQGLEWMGVINPRGGSRRSAQKFQGRITMTRDTSTSTVYMELSSLRSEDTAVYYCARGGRALFYDSYTTPFDGGSWWFDPWGQGSLVTVSS VL: DIQLTQSPSSLSASVGDRVTFTCQASQDIRKYLNWYQQKPGKAPKLLIYDASNLKTGVPSRFSGSGSGTDFTFTISSLQPEDVATYYCQQFDDLPITFGQGTRLQIKR | – | – | – | – | 0.000988 | – |

— patent US20240190948A1 (Chugai, published 2024)
